Measured values reported in patent US6878520 (MERCK, dated 2005).

Experiments:
[1] = molecular target: T1, human melanocortin-3 receptor (human, UniProt P41968 1-323); experiment: inhibition of 125I-NDP-α-MSH binding to membranes of cells expressing human MC3R
T1 construct: whole, on cells; Assayed as membranes prepared from stably expressing cells; also called hMC3R; MC3R
Procedure: (§1) Binding assays were done in the same manner as described in Fong et al., 1997, Biochem. Biophys. Res. Comm. 237:629–631. Binding assays were carried out using membranes prepared from L cells or CHO cells stably expressing human MC3R, MC4R or MC5R. […] The above mixture in binding buffer (50 mM Tris, 2 mM CaCl_2, 1 mM MgCl_2, 5 mM KCl, pH 7.2) was incubated at room temperature for 2 hours, followed by filtration through GFC paper. The bound ligand was quantitated in a γ counter. IC$50$ values were calculated as previously described (Fong et al., 1996, Mol. Pharmacol. 50:1605–1611).

[2] = molecular target: T2, human melanocortin-4 receptor (human, UniProt P32245 1-332); experiment: inhibition of 125I-NDP-α-MSH binding to membranes of cells expressing human MC4R
T2 construct: whole, on cells; Assayed as membranes prepared from stably expressing cells; also called hMC4R; MC4R
T2 sequence (P32245 whole entry): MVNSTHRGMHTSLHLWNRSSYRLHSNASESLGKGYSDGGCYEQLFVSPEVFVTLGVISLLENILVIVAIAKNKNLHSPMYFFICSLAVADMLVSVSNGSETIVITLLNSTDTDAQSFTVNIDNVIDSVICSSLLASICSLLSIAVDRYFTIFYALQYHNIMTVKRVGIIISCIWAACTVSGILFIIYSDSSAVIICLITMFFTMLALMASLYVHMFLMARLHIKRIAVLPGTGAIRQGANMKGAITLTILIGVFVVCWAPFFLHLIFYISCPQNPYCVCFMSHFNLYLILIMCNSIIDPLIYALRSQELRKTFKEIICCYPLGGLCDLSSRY
Procedure: as §1

T1 sequence (P41968 whole entry): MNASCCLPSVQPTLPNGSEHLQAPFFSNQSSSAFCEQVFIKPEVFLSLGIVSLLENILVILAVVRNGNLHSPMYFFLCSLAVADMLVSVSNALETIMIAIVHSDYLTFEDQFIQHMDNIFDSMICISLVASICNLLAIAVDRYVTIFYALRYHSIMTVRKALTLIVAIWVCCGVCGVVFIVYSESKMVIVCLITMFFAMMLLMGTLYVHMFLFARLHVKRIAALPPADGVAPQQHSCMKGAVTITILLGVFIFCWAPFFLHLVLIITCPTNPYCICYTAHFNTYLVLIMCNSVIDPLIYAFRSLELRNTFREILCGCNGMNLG

IC50 [1] [nM]	IC50 [2] [nM]	Binder
1.9	1.4	c-ART-b (ligand, Secreted into the culture medium of transfected COS-7 cells and used as concentrated medium; also called ART polypeptide) AQMGLALQDREPRSSRRCVRLHESCLGQQVPCCDPCATCYCRFFNAFCYCRKLGTAMNPCSRTLVPRGSGSELGTKLGPEQKLISEEDLNSAVDHHHHHH
1	0.5	full-length human ART protein (ligand, also called full length ART; full-length ART protein) AQMGLAPMEGIRRPDQALLPELPGLGLRAPLKKTNAEQAEEDLLQEAQALAEVLDLQDREPRSSRRCVRLHESCLGQQVPCCDPCATCYCRFFNAFCYCRKLGTAMNPCSRTLVPRGSGSELGTKLGPEQKLISEEDLNSAVDHHHHHH
